Experimental data published in PMC12344693, “Human Milk Oligosaccharides Multivalently Presented on Defined Synthetic Neo-Glycoproteins Are Nanomolar Ligands of Tandem-Repeat Galectins” (Biomacromolecules, 2025).
Read-outs that look alike come from different tables or passages of the source.

Legend:
[1] = target: T1, Gal-9 (Homo sapiens, UniProt O00182, A222P/DEL149-219); set-up: method as in ref 19 (a number printed in a supplementary file, which may have a reference list of its own: not looked up in the article's list); details: direct ELISA; His-tagged Gal-9; read-out: KD for ASF, His-tag; cited from earlier work
T1 construct: Full-length recombinant human galectins (Gal-1, Gal-3, Gal-4, Gal-8, and Gal-9) for ELISA assays; made in house; host or cells: E. coli Rosetta 2(DE3)pLysS
T1 sequence (O00182 with tags, fused parts or gaps DEL149-219/A222P): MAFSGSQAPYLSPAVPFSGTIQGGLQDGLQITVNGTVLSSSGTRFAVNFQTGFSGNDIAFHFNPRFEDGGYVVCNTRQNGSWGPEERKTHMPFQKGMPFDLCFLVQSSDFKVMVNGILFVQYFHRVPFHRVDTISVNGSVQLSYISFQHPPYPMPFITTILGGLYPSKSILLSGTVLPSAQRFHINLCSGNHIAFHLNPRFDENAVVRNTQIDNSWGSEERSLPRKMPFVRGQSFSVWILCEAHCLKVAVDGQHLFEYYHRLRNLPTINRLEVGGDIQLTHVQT

[2] = target: T2, Gal-4N (Homo sapiens, UniProt P56470); set-up: method as in ref 11 (a number printed in a supplementary file, which may have a reference list of its own: not looked up in the article's list); details: direct ELISA; His-tagged Gal-4N; read-out: KD for ASF, His-tag; cited from earlier work
T2 construct: Tandem-repeat galectins consist of an N-terminal and a C-terminal carbohydrate recognition domain (CRD) interconnected with a peptide linker; His-tag; made in house; host or cells: E. coli
T2 sequence (P56470 19-150 limits assumed): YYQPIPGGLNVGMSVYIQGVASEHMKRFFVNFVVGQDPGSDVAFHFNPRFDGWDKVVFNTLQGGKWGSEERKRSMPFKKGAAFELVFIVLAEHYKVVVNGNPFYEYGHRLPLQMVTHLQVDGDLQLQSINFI

[3] = target: T3, Gal-8C (Homo sapiens, UniProt O00214); experiment: direct ELISA, galectin binding to immobilized asialofetuin; details: AVI-tagged Gal-8C, read-out: KD for ASF, AVI-tag
T3 construct: Tandem-repeat galectins consist of an N-terminal and a C-terminal carbohydrate recognition domain (CRD) interconnected with a peptide linker; His-tag; made in house; host or cells: E. coli
T3 sequence (O00214 187-317 limits assumed): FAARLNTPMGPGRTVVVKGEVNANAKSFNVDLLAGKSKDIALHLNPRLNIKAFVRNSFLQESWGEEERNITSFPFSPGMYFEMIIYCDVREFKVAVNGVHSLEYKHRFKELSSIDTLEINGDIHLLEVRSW
Procedure: (§1) detailed in the main text.
(§2) respective galectin in EPBS (50 μL/well).

[4] = target: T4, Gal-8N (Homo sapiens, UniProt O00214); experiment: as above; details: AVI-tagged Gal-8N, read-out: KD for ASF, AVI-tag
T4 construct: Tandem-repeat galectins consist of an N-terminal and a C-terminal carbohydrate recognition domain (CRD) interconnected with a peptide linker; His-tag; made in house; host or cells: E. coli
T4 sequence (O00214 19-152 limits assumed): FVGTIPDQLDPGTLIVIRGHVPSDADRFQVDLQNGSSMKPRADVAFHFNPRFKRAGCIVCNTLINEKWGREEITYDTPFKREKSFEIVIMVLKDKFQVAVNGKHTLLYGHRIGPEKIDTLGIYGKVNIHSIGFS
Procedure: as §1, §2

[5] = target: T5, Gal-8 (Homo sapiens, UniProt O00214); experiment: as above; details: AVI-tagged Gal-8, read-out: KD for ASF, AVI-tag
T5 construct: Full-length recombinant human galectins (Gal-1, Gal-3, Gal-4, Gal-8, and Gal-9) for ELISA assays; made in house; host or cells: E. coli Rosetta 2(DE3)pLysS
T5 sequence (O00214 1-317): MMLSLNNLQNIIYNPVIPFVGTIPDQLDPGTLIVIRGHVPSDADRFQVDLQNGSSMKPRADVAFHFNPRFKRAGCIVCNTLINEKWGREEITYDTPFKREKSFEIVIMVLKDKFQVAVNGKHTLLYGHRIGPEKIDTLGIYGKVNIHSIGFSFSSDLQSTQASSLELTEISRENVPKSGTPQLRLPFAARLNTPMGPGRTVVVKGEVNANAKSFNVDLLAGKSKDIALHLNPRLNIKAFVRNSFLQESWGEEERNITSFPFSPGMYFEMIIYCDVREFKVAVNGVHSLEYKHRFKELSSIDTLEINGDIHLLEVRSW
Procedure: as §1, §2

[6] = target: T6, Gal-4C (Homo sapiens, UniProt P56470); experiment: as above; details: AVI-tagged Gal-4C, read-out: KD for ASF, AVI-tag
T6 construct: Tandem-repeat galectins consist of an N-terminal and a C-terminal carbohydrate recognition domain (CRD) interconnected with a peptide linker; His-tag; made in house; host or cells: E. coli
T6 sequence (P56470 194-323 limits assumed): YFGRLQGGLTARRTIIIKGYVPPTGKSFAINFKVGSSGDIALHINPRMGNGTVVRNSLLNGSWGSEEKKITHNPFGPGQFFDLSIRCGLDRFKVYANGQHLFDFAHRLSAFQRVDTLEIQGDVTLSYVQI
Procedure: as §1, §2

[7] = target: T7, Gal-9C (Homo sapiens, UniProt O00182, A222P); experiment: as above; details: AVI-tagged Gal-9C, read-out: KD for ASF, AVI-tag
T7 construct: Tandem-repeat galectins consist of an N-terminal and a C-terminal carbohydrate recognition domain (CRD) interconnected with a peptide linker; His-tag; made in house; host or cells: E. coli
T7 sequence (O00182 220-355 A222P): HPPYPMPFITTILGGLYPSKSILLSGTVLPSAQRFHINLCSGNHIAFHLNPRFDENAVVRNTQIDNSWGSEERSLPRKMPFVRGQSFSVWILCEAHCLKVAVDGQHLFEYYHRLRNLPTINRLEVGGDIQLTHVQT
Procedure: as §1, §2

[8] = target: T8, Gal-4 (Homo sapiens, UniProt P56470); experiment: as above; details: AVI-tagged Gal-4, read-out: KD for ASF, AVI-tag
T8 construct: Full-length recombinant human galectins (Gal-1, Gal-3, Gal-4, Gal-8, and Gal-9) for ELISA assays; made in house; host or cells: E. coli Rosetta 2(DE3)pLysS
T8 sequence (P56470 1-323): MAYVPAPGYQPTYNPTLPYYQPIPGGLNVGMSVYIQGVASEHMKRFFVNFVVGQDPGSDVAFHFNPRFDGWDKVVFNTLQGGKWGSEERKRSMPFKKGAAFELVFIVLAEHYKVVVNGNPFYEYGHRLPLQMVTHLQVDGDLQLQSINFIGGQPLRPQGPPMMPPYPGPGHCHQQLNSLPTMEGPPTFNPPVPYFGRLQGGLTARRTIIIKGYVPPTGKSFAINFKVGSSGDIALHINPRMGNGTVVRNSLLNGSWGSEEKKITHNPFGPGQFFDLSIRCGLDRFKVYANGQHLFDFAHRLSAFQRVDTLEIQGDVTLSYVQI
Procedure: as §1, §2

[9] = target: T2, Gal-4N; experiment: as above; details: AVI-tagged Gal-4N, read-out: KD for ASF, AVI-tag
Procedure: as §1, §2

[10] = target: T9, Gal-9N (Homo sapiens, UniProt O00182, DELINS149-222HPP); experiment: as above; details: AVI-tagged Gal-9N, read-out: KD for ASF, AVI-tag
T9 construct: Tandem-repeat galectins consist of an N-terminal and a C-terminal carbohydrate recognition domain (CRD) interconnected with a peptide linker; His-tag; made in house; host or cells: E. coli
T9 sequence (O00182 with tags, fused parts or gaps DELINS149-222HPP): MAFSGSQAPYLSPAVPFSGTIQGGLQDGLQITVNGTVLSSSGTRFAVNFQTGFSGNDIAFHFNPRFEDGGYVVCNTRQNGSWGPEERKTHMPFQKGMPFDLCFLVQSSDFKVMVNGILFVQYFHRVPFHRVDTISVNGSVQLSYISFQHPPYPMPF
Procedure: as §1, §2

[11] = target: T1, Gal-9; experiment: as above; details: AVI-tagged Gal-9, read-out: KD for ASF, AVI-tag
Procedure: as §1, §2

[12] = target: T6, Gal-4C; set-up: method as in ref 11 (a number printed in a supplementary file, which may have a reference list of its own: not looked up in the article's list); details: direct ELISA; His-tagged Gal-4C; read-out: KD for ASF, His-tag; cited from earlier work
[13] = target: T8, Gal-4; set-up: method as in ref 11 (a number printed in a supplementary file, which may have a reference list of its own: not looked up in the article's list); details: direct ELISA; His-tagged Gal-4; read-out: KD for ASF, His-tag; cited from earlier work
[14] = target: T3, Gal-8C; set-up: method as in ref 19 (a number printed in a supplementary file, which may have a reference list of its own: not looked up in the article's list); details: direct ELISA; His-tagged Gal-8C; read-out: KD for ASF, His-tag; cited from earlier work
[15] = target: T4, Gal-8N; set-up: method as in ref 19 (a number printed in a supplementary file, which may have a reference list of its own: not looked up in the article's list); details: direct ELISA; His-tagged Gal-8N; read-out: KD for ASF, His-tag; cited from earlier work
[16] = target: T9, Gal-9N; set-up: method as in ref 19 (a number printed in a supplementary file, which may have a reference list of its own: not looked up in the article's list); details: direct ELISA; His-tagged Gal-9N; read-out: KD for ASF, His-tag; cited from earlier work
[17] = target: T7, Gal-9C; set-up: method as in ref 19 (a number printed in a supplementary file, which may have a reference list of its own: not looked up in the article's list); details: direct ELISA; His-tagged Gal-9C; read-out: KD for ASF, His-tag; cited from earlier work
[18] = target: T5, Gal-8; set-up: method as in ref 19 (a number printed in a supplementary file, which may have a reference list of its own: not looked up in the article's list); details: direct ELISA; His-tagged Gal-8; read-out: KD for ASF, His-tag; cited from earlier work

For “ASF: asialofetuin, glycoprotein immobilized on ELISA plates as galectin ligand”, the Kd [1] is listed as 0.15 ± 0.04 µM, the Kd [2] is listed as 38 ± 3 µM and the Kd [3] is listed as 11 ± 2 µM. It also gave a Kd [4] of 4.6 ± 1.3 µM, a Kd [5] of 0.32 ± 0.13 µM and a Kd [6] of 6.5 ± 1.2 µM. The Kd [7] was 4.9 ± 0.4 µM, the Kd [8] was 2.3 ± 0.8 µM and the Kd [9] was 17 ± 2 µM. The Kd [10] was 11 ± 4 µM, the Kd [11] was 0.18 ± 0.05 µM and the Kd [12] was 19 ± 2 µM. The Kd [13] was 3.3 ± 1.1 µM, the Kd [14] was 9.4 ± 0.4 µM and the Kd [15] was 2.3 ± 0.5 µM. The Kd [16] was 25 ± 6 µM, the Kd [17] was 3.6 ± 0.5 µM and the Kd [18] was 0.14 ± 0.06 µM.
